The source of these data is patent US20080220459.

Series [1] concerns the target human collagen alpha1 (IX) in human articular cartilage (UniProt P20849).
Series [2] concerns bovine collagen alpha1 (IX) in bovine nasal cartilage explants.

human collagen alpha1 (IX) in human articular cartilage, sequence (P20849 24-921): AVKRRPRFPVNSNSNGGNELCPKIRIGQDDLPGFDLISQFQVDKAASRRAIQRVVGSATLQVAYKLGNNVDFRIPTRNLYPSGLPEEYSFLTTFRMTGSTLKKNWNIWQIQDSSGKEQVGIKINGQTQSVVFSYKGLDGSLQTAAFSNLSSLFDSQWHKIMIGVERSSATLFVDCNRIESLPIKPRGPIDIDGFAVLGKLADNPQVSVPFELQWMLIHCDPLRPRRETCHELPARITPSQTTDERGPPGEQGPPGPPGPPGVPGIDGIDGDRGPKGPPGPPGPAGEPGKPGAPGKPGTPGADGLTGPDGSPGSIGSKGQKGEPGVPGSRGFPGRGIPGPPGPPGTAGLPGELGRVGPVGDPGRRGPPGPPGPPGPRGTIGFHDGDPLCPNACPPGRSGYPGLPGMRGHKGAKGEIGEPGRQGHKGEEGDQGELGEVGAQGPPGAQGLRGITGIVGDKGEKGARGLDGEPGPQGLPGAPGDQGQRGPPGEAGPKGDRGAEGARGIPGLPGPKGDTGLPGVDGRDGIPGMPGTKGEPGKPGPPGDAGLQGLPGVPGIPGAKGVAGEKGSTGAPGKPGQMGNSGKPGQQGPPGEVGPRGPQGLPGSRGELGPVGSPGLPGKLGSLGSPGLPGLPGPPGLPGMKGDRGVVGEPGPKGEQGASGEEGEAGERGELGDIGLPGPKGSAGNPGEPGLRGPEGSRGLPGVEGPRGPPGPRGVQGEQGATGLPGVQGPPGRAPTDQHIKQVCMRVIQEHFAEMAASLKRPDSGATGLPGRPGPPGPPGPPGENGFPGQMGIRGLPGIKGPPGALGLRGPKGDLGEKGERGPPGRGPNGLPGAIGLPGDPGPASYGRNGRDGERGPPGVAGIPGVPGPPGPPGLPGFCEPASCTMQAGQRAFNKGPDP

As to matrix metalloproteinase 13 (MMP-13), the “cleavage of collagen alpha1 (IX) in human articular cartilage (Western blot and LC-MS of the released 30 kD fragment)” value in series [1] is listed as “a peptide representing a potentially new cleavage site CHELPARITPSQ^263-COOH (SEQ ID NO:6) NH2-TTDERGPP- (SEQ ID NO:7)”. The “cleavage of collagen alpha1 (IX) in cartilage explants (Western blot and LC-MS of released fragments)” value in series [2] was “Bovine nasal cartilage explants were digested with MMP-13 and indeed the enzyme cleaved collagen α1 (IX)”.
